Among the data in publication doi:10.1101/2021.04.16.440242 are stoichiometry N values, retold here.

The target in the assay is T1, wild-type CHIP (carboxyl terminus of Hsc70-interacting protein) (human), Q9UNE7.
T1 chain: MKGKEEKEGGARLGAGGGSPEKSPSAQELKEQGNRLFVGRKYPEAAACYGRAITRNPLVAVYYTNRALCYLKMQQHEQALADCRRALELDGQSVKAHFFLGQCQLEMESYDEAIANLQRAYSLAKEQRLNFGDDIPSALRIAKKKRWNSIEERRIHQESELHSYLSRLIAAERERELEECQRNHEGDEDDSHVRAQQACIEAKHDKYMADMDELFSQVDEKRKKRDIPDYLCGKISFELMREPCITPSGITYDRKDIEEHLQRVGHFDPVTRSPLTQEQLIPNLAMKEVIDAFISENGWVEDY
Briefly: SEC. Conditions: remark: other sources report otherwise.

B1: wild-type CHIP (carboxyl terminus of Hsc70-interacting protein), Q9UNE7 1-303 (enzyme)
chain: T1 chain
B1 displayed a stoichiometry N of 2.

In general, stoichiometry N refers to a count of units in the complex or per binding partner.
